Data set [1] concerns the target UAP56;SARNP (Homo sapiens;Homo sapiens) (UniProt Q13838). Briefly: pull-down. The settings on record: 1 mM AMP-PNP; UAP56 bound with SARNP set to 100%; GCI: 25 mM HEPES pH 7.9, 50 mM KCl, 1 mM MgCl2, 1 mM TCEP, 1 mM ATP, 25 C; AdML pull-down: 20 mM HEPES pH 7.9, 100 mM KCl, 2 mM MgCl2, 5% glycerol, 0.1% ….
Data set [2] has as its target ALYREF N-UBM peptide, biotinylated (human). Briefly: grating-coupled interferometry (GCI); biotinylated UBM or UCM peptides captured on a streptavidin chip; UAP56 injected; 25 mM HEPES pH 7.9, 50 mM KCl, 1 mM MgCl2, 1 mM TCEP, 25 °C; one-to-one model; UCM peptides also with AMP-PNP or AMP-PNP and 15 U RNA.
The target in data set [3] is the THO complex (recombinant, surface-immobilized; tetramer, dimer or monomer, not told apart in the sentence). Put plainly: grating-coupled interferometry (GCI); V5-tagged THO complex captured on an anti-V5 chip; UAP56 injected in a 1:2 series from 5 μM, alone or with only 1 mM ATP or only 200 μM 15 U RNA; 25 mM HEPES pH 7.9, 50 mM KCl, 1 mM MgCl2, 1 mM TCEP, 25 °C; one-to-one model.

Data set [4] deals with UAP56-UCM-1-N-UBM fusion (Homo sapiens) (UniProt Q13838+P82979+Q86V81). Briefly: GCI. The settings on record: 1 mM ATP, RNA immobilized, GCI: 25 mM HEPES pH 7.9, 50 mM KCl, 1 mM MgCl2, 1 mM TCEP, 25 C, AdML pull-down: 20 mM HEPES pH 7.9, 100 mM KCl, 2 mM MgCl2, 5% glycerol, 0.1% ….

In the case of AdML RNA with MS2 loops, 450 nt, in data set [1], the binding signal worked out at 100%.

By Kd is commonly meant the concentration at which binding is half-saturated. Take “UAP56 (from UniProt Q13838 1-428) (enzyme)”: the Kd was 28 µM in data set [2] and 0.24 to 0.39 µM in data set [3].

As for UUUUUUUUUUUUUUU [15U RNA], the dissociation constant (Kd) in data set [4] turned out to be 0.12 µM.
